{"source": "the Human Domainome abundance scans (Beltran et al. 2025)", "parents": {"B1": {"name": "Zinc finger homeobox protein 4, residues 2562 to 2617; numbered along this chain, Q86UP3 (parent)", "chain": "RLRTTITPEQLEILYEKYLLDSNPTRKMLDHIAREVGLKKRVVQVWFQNTRARERK"}}, "note": "± gives the uncertainty stated by the source."}
{"variants_of": "B1", "assay": "abundance fitness (aPCA) (normalised: wild type 0, dead -1); higher = more abundant; growth selection in yeast, the domain comes from the species named", "conditions": "Homo sapiens"}
{"variant": "RLRTTITPEQLEILYEKYLLDSNPTRKMLDHIAREVGLKKRVVQVWFQNTSARERK", "abundance fitness": "0.086 ± 0.067"}
{"variant": "RLRTTITPEQLEILYEKYLLDSNPTRKMLDHIAREVGLKKRVVQVWFQNTEARERK", "abundance fitness": "-0.15 ± 0.12"}
{"variant": "RLRTTITPEQLEILYEKYLLDSNPTRKMLDHIAREVGLKKRVVQVWFQNTMARERK", "abundance fitness": "-0.021 ± 0.067"}
{"variant": "RLRTTITPEQLEILYEKYLLDSNPTRKMLDHIAREVGLKKRVVQVWFQNTTARERK", "abundance fitness": "-0.242 ± 0.084"}
{"variant": "RLRTTITPEQLEILYEKYLLDSNPTRKMLDHIAREVGLKKRVVQVWFQNTGARERK", "abundance fitness": "-0.151 ± 0.068"}
{"variant": "RLRTTITPEQLEILYEKYLLDSNPTRKMLDHIAREVGLKKRVVQVWFQNTHARERK", "abundance fitness": "0.32 ± 0.092"}
{"variant": "RLRTTITPEQLEILYEKYLLDSNPTRKMLDHIAREVGLKKRVVQVWFQNTFARERK", "abundance fitness": "-0.08 ± 0.07"}
{"variant": "RLRTTITPEQLEILYEKYLLDSNPTRKMLDHIAREVGLKKRVVQVWFQNTIARERK", "abundance fitness": "0.134 ± 0.064"}
{"variant": "RLRTTITPEQLEILYEKYLLDSNPTRKMLDHIAREVGLKKRVVQVWFQNTYARERK", "abundance fitness": "-0.192 ± 0.1"}
{"variant": "RLRTTITPEQLEILYEKYLLDSNPTRKMLDHIAREVGLKKRVVQVWFQNTVARERK", "abundance fitness": "0.017 ± 0.076"}
{"variant": "RLRTTITPEQLEILYEKYLLDSNPTRKMLDHIAREVGLKKRVVQVWFQNTKARERK", "abundance fitness": "0.039 ± 0.081"}
{"variant": "RLRTTITPEQLEILYEKYLLDSNPTRKMLDHIAREVGLKKRVVQVWFQNTAARERK", "abundance fitness": "0.17 ± 0.053"}
{"variant": "RLRTTITPEQLEILYEKYLLDSNPTRKMLDHIAREVGLKKRVVQVWFQNERARERK", "abundance fitness": "0.265 ± 0.11"}
{"variant": "RLRTTITPEQLEILYEKYLLDSNPTRKMLDHIAREVGLKKRVVQVWFQNIRARERK", "abundance fitness": "-0.042 ± 0.1"}
{"variant": "RLRTTITPEQLEILYEKYLLDSNPTRKMLDHIAREVGLKKRVVQVWFQNNRARERK", "abundance fitness": "-0.127 ± 0.1"}
{"variant": "RLRTTITPEQLEILYEKYLLDSNPTRKMLDHIAREVGLKKRVVQVWFQNRRARERK", "abundance fitness": "0.08 ± 0.056"}
{"variant": "RLRTTITPEQLEILYEKYLLDSNPTRKMLDHIAREVGLKKRVVQVWFQNFRARERK", "abundance fitness": "-0.069 ± 0.096"}
{"variant": "RLRTTITPEQLEILYEKYLLDSNPTRKMLDHIAREVGLKKRVVQVWFQNMRARERK", "abundance fitness": "-0.094 ± 0.083"}
{"variant": "RLRTTITPEQLEILYEKYLLDSNPTRKMLDHIAREVGLKKRVVQVWFQNPRARERK", "abundance fitness": "-0.738 ± 0.077"}
{"variant": "RLRTTITPEQLEILYEKYLLDSNPTRKMLDHIAREVGLKKRVVQVWFQNSRARERK", "abundance fitness": "0.06 ± 0.083"}
{"variant": "RLRTTITPEQLEILYEKYLLDSNPTRKMLDHIAREVGLKKRVVQVWFQNCRARERK", "abundance fitness": "-0.345 ± 0.14"}
{"variant": "RLRTTITPEQLEILYEKYLLDSNPTRKMLDHIAREVGLKKRVVQVWFQNWRARERK", "abundance fitness": "-0.097 ± 0.086"}
{"variant": "RLRTTITPEQLEILYEKYLLDSNPTRKMLDHIAREVGLKKRVVQVWFQNLRARERK", "abundance fitness": "-0.137 ± 0.071"}
{"variant": "RLRTTITPEQLEILYEKYLLDSNPTRKMLDHIAREVGLKKRVVQVWFQNHRARERK", "abundance fitness": "-0.034 ± 0.12"}
{"variant": "RLRTTITPEQLEILYEKYLLDSNPTRKMLDHIAREVGLKKRVVQVWFQNGRARERK", "abundance fitness": "-0.367 ± 0.064"}
{"variant": "RLRTTITPEQLEILYEKYLLDSNPTRKMLDHIAREVGLKKRVVQVWFQNKRARERK", "abundance fitness": "0.028 ± 0.072"}
{"variant": "RLRTTITPEQLEILYEKYLLDSNPTRKMLDHIAREVGLKKRVVQVWFQNVRARERK", "abundance fitness": "-0.068 ± 0.071"}
{"variant": "RLRTTITPEQLEILYEKYLLDSNPTRKMLDHIAREVGLKKRVVQVWFQNYRARERK", "abundance fitness": "-0.107 ± 0.21"}
{"variant": "RLRTTITPEQLEILYEKYLLDSNPTRKMLDHIAREVGLKKRVVQVWFQNARARERK", "abundance fitness": "0.041 ± 0.073"}
{"variant": "RLRTTITPEQLEILYEKYLLDSNPTRKMLDHIAREVGLKKRVVQVWFQLTRARERK", "abundance fitness": "-0.25 ± 0.062"}
{"variant": "RLRTTITPEQLEILYEKYLLDSNPTRKMLDHIAREVGLKKRVVQVWFQPTRARERK", "abundance fitness": "-0.73 ± 0.23"}
{"variant": "RLRTTITPEQLEILYEKYLLDSNPTRKMLDHIAREVGLKKRVVQVWFQKTRARERK", "abundance fitness": "-0.489 ± 0.16"}
{"variant": "RLRTTITPEQLEILYEKYLLDSNPTRKMLDHIAREVGLKKRVVQVWFQDTRARERK", "abundance fitness": "-0.043 ± 0.1"}
{"variant": "RLRTTITPEQLEILYEKYLLDSNPTRKMLDHIAREVGLKKRVVQVWFQGTRARERK", "abundance fitness": "-0.182 ± 0.059"}
{"variant": "RLRTTITPEQLEILYEKYLLDSNPTRKMLDHIAREVGLKKRVVQVWFQATRARERK", "abundance fitness": "0.043 ± 0.08"}
{"variant": "RLRTTITPEQLEILYEKYLLDSNPTRKMLDHIAREVGLKKRVVQVWFQWTRARERK", "abundance fitness": "-0.422 ± 0.063"}
{"variant": "RLRTTITPEQLEILYEKYLLDSNPTRKMLDHIAREVGLKKRVVQVWFQSTRARERK", "abundance fitness": "-0.009 ± 0.072"}
{"variant": "RLRTTITPEQLEILYEKYLLDSNPTRKMLDHIAREVGLKKRVVQVWFQITRARERK", "abundance fitness": "0.12 ± 0.12"}
{"variant": "RLRTTITPEQLEILYEKYLLDSNPTRKMLDHIAREVGLKKRVVQVWFQHTRARERK", "abundance fitness": "-0.423 ± 0.16"}
{"variant": "RLRTTITPEQLEILYEKYLLDSNPTRKMLDHIAREVGLKKRVVQVWFQCTRARERK", "abundance fitness": "-0.282 ± 0.067"}
{"variant": "RLRTTITPEQLEILYEKYLLDSNPTRKMLDHIAREVGLKKRVVQVWFQVTRARERK", "abundance fitness": "-0.125 ± 0.074"}
{"variant": "RLRTTITPEQLEILYEKYLLDSNPTRKMLDHIAREVGLKKRVVQVWFQYTRARERK", "abundance fitness": "-0.414 ± 0.17"}
{"variant": "RLRTTITPEQLEILYEKYLLDSNPTRKMLDHIAREVGLKKRVVQVWFQETRARERK", "abundance fitness": "0.253 ± 0.1"}
{"variant": "RLRTTITPEQLEILYEKYLLDSNPTRKMLDHIAREVGLKKRVVQVWFQQTRARERK", "abundance fitness": "-0.104 ± 0.09"}
{"variant": "RLRTTITPEQLEILYEKYLLDSNPTRKMLDHIAREVGLKKRVVQVWFQMTRARERK", "abundance fitness": "0.029 ± 0.13"}
{"variant": "RLRTTITPEQLEILYEKYLLDSNPTRKMLDHIAREVGLKKRVVQVWFQRTRARERK", "abundance fitness": "-0.477 ± 0.077"}
{"variant": "RLRTTITPEQLEILYEKYLLDSNPTRKMLDHIAREVGLKKRVVQVWFQTTRARERK", "abundance fitness": "-0.102 ± 0.12"}
